Measurements reported in patent publication US20110008326A1 (published 2011).

Target: T1, Human, recombinant IL-4R-Fc protein (human, UniProt P24394 26-232)
T1 construct: also called immobilized receptor
T1 sequence: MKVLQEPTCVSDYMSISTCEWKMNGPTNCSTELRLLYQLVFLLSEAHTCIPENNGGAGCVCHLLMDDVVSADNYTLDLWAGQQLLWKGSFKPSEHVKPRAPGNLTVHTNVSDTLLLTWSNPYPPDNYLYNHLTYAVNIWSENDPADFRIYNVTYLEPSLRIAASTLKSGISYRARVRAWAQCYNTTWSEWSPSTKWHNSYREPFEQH
Assay: competition ELISA on IL-4R-Fc coated plates; competitor: 10 ng/ml mouse antibody X2/45
Procedure: Human, recombinant IL-4R-Fc protein was immobilized on ELISA plates at 100 ng/well followed by blocking of free binding sites.

- binding result: binds
B1: humanised anti-IL-4R antibody (variable regions SEQ ID NOs: 13 and 14) (antibody, V domains shown)
VH: EVQLVESGGGLVKPGGSLRLSCAASGFTFNTNAMNWVRQAPGKGLEWVARIRSKSNNYATYYADSVKDRFTLSRDDSKNTLYLQMNSLKTEDTAVYYCTRDRGWGAMDYWGQGTTVTVSS
VL: DIQMTQSPSSLSASVGDRVTITCSASQDINNYLNWYQQKPGKAPKLLIYYTSSLHSGVPSRFSGSGSGTDFTLTISSLQPEDFATYYCQQFSNLPWTFGGGTKLEIK
notes: Full length antibody made in Hek 293T cells; light chain of kappa type; also called humanised antibody; humanised version of X2/45
